# Measured values as given in article PMC5146284, “Molecular imaging with engineered physiology” (Nature Communications, 2016).
# Like-named read-outs stand apart in the source and are kept apart here. Positions of bridges follow the written chain, without caps; N, C: chain ends. No end group written: not given here. *: point of attachment. long‑chain biotin = O=C(CCCC[C@@H]1SC[C@@H]2NC(=O)N[C@@H]21)NCCCCCC(=O)*; cfSGFP2 = cysteine-free variant of the GFP
# Molecular target: T1, RAMP1/CLR CGRP receptor heterodimer in HEK293FT reporter cells (Homo sapiens, UniProt O60894+Q16602)
# T1 construct: HA-CALCRL: Human calcitonin receptor-like receptor preceded by the H. influenza; Human receptor-activity modifying protein 1 preceded by the H. influenza; hemagglutinin signal peptide (heterologous, replaces the native one) (N); expressed in transfected cells
# Test: Luminescent cAMP (GloSensor) cell-based bioassay for CGRP receptor activation
# Settings: for Log(EC50), Cleaved: after protease: (1) 5 ng/μl human FAP, (2) 0.1 U/μl TEV, (3) 2 pg/μl EK light chain, (4) 23 ng/μl, (5) 11.5 ng/μl human CASP3; for Log(EC50), Cleaved / Log(EC50), Uncleaved: s.e.m. <0.1 (n=7); for Log(EC50), Uncleaved: incubated without protease
# T1 sequence (Q16602 23-461): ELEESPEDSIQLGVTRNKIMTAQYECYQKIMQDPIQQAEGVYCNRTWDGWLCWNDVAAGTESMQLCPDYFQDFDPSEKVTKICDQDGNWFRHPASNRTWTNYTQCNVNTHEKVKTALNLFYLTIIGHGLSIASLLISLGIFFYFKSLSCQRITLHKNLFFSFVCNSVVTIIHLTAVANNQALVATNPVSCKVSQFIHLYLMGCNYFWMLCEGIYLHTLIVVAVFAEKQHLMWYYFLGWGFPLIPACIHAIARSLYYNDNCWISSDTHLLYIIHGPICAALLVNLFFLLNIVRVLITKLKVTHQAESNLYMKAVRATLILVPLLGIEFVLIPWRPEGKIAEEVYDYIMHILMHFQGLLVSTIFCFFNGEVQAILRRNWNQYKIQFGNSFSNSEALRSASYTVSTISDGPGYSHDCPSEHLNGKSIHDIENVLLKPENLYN
# T1 sequence (O60894 27-148): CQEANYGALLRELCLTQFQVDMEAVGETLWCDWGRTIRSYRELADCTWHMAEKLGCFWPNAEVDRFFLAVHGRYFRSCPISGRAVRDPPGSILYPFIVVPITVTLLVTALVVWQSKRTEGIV
molecule,measurement,setting,value
CC(C)C[C@H](NC(=O)CNC(=O)[C@H](C)NC(=O)[C@H](CC(C)C)NC(=O)[C@H](CCCNC(=N)N)NC(=O)[C@H](Cc1c[nH]cn1)NC(=O)[C@@H](NC(=O)[C@@H](NC(=O)[C@@H]1CSSC[C@H](NC(=O)[C@H](C)N)C(=O)N[C@@H](CC(=O)O)C(=O)N[C@@H]([C@@H](C)O)C(=O)N[C@@H](C)C(=O)N[C@@H]([C@@H](C)O)C(=O)N1)C(C)C)[C@@H](C)O)C(=O)N[C@@H](CC(C)C)C(=O)N[C@@H](CO)C(=O)N[C@@H](CCCNC(=N)N)C(=O)N[C@@H](CO)C(=O)NCC(=O)NCC(=O)N[C@H](C(=O)N[C@H](C(=O)N[C@@H](CCCCN)C(=O)N[C@@H](CC(N)=O)C(=O)N[C@@H](CC(N)=O)C(=O)N[C@@H](Cc1ccccc1)C(=O)N[C@H](C(=O)N1CCC[C@H]1C(=O)N[C@H](C(=O)N[C@@H](CC(N)=O)C(=O)N[C@H](C(=O)NCC(=O)N[C@@H](CO)C(=O)N[C@@H](CCCCN)C(=O)N[C@@H](C)C(=O)N[C@@H](Cc1ccccc1)C(=O)NCC(=O)O)C(C)C)[C@@H](C)O)C(C)C)C(C)C)C(C)C [CGRP-G],EC50,"C-terminal glycine extension, read-out: 95% CI of EC50 for receptor activation",2.1 to 3.1 nM
same,EC50,"C-terminal glycine extension, read-out: EC50 for receptor activation",2.5 nM
CC(C)C[C@H](NC(=O)CNC(=O)[C@H](C)NC(=O)[C@H](CC(C)C)NC(=O)[C@H](CCCNC(=N)N)NC(=O)[C@H](Cc1c[nH]cn1)NC(=O)[C@@H](NC(=O)[C@@H](NC(=O)[C@@H]1CSSC[C@H](NC(=O)[C@H](C)NC(=O)[C@@H]2CCCN2C(=O)[C@H](C)N)C(=O)N[C@@H](CC(=O)O)C(=O)N[C@@H]([C@@H](C)O)C(=O)N[C@@H](C)C(=O)N[C@@H]([C@@H](C)O)C(=O)N1)C(C)C)[C@@H](C)O)C(=O)N[C@@H](CC(C)C)C(=O)N[C@@H](CO)C(=O)N[C@@H](CCCNC(=N)N)C(=O)N[C@@H](CO)C(=O)NCC(=O)NCC(=O)N[C@H](C(=O)N[C@H](C(=O)N[C@@H](CCCCN)C(=O)N[C@@H](CC(N)=O)C(=O)N[C@@H](CC(N)=O)C(=O)N[C@@H](Cc1ccccc1)C(=O)N[C@H](C(=O)N1CCC[C@H]1C(=O)N[C@H](C(=O)N[C@@H](CC(N)=O)C(=O)N[C@H](C(=O)NCC(=O)N[C@@H](CO)C(=O)N[C@@H](CCCCN)C(=O)N[C@@H](C)C(=O)N[C@@H](Cc1ccccc1)C(N)=O)C(C)C)[C@@H](C)O)C(C)C)C(C)C)C(C)C [Sensor (1)],EC50,"after FAP cleavage, 95% CI, read-out: CI of EC50 following cleavage",0.013 to 0.02 nM
same,EC50,"uncleaved FAP sensor, 95% CI, read-out: CI of EC50 before cleavage",0.112 to 0.116 nM
same,EC50,"uncleaved FAP sensor, read-out: EC50 before cleavage",0.114 nM
(long-chain biotin)-SG-DEVD-CGRP-amide (disulfide) ({long‑chain biotin}-SGDEVDACDTATCVTHRLAGLLSRSGGVVKNNFVPTNVGSKAF-NH2; disulfide 8-13) [Sensor (5)],EC50,"after CASP3 cleavage, 95% CI, read-out: CI of EC50 following cleavage",0.038 to 0.046 nM
same,EC50,"uncleaved CASP3 sensor, 95% CI, read-out: CI of EC50 before cleavage",5.2 to 6.4 nM
same,EC50,"uncleaved CASP3 sensor, read-out: EC50 before cleavage",5.7 nM
"cfSGFP2-DDDDK-CGRP-G (cfSGFP2-GGSGDDDDKACDTATCVTHRLAGLLSRSGGVVKNNFVPTNVGSKAFG; ends and bridges not checked; also: StrepII tag, position not given here) [Sensor (3), recombinant fusion of cysteine-free GFP, a short linker, enterokinase site and non-amidated CGRP]","Log(EC50), Cleaved",,−6.4
same,"Log(EC50), Uncleaved",,<−5
"cfSGFP2-DEVD-CGRP-G (cfSGFP2-GGSGDEVDACDTATCVTHRLAGLLSRSGGVVKNNFVPTNVGSKAFG; ends and bridges not checked; also: StrepII tag, position not given here) [Sensor (4), recombinant fusion of cysteine-free GFP, a short linker, caspase-3 site and non-amidated CGRP]","Log(EC50), Cleaved",,−6.4
same,"Log(EC50), Uncleaved",,<−5
"cfSGFP2-ENLYFQG-CGRP-G (cfSGFP2-GGSGENLYFQGACDTATCVTHRLAGLLSRSGGVVKNNFVPTNVGSKAFG; ends and bridges not checked; also: StrepII tag, position not given here) [Sensor (2), recombinant fusion of cysteine-free GFP, a short linker, TEV protease site and non-amidated CGRP]","Log(EC50), Cleaved",,−6.0
same,"Log(EC50), Uncleaved",,<−5
